Data: patent US20200171161A1 (Bicycle, published 2020)
Numbered stars: 1 amine (or outer) side, 2 acyl side, 3 side chain; on linkers, the order of the positions; unused ones are H or OH. Bridge positions count the residues as written; N and C are the ends. Square brackets hold non-standard residues; d marks the D form. Ends that are not written are not given here. * marks the point of attachment. DOTA = O=C(O)CN1CCN(CC(=O)O)CCN(CC(=O)*)CCN(CC(=O)O)CC1; Phe(4-Br) = N[C@@H](Cc1ccc(Br)cc1)C(=O)O; 1Nal = N[C@@H](Cc1cccc2ccccc12)C(=O)O; TBMB = c1c(C[*:1])cc(C[*:3])cc1C[*:2]; Tle = CC(C)(C)[C@H](N)C(=O)O; βAla = NCCC(=O)O; Sar = CNCC(=O)O

Columns and labels:
[1] = target: T1, human MT1-MMP hemopexin domain (hemopexin-like repeats, residues Cys319-Gly511), N-terminally His6-tagged … (human, UniProt P50281 319-511); test: FP competition vs MT1-MMP hemopexin domain (tracer not given)
T1 construct: range 319-511; Secreted from HEK293 cells; also called hemopexin protein; MT1-MMP (=MMP-14); not shown: N-terminal His6 tag from pEXPR-IBA42 vector
Description: (§1) Subsequently, the non-fluorescent competitor bicyclic peptide (usually just the bicycle core sequence) is titrated, such that it displaces the fluorescent tracer from the target protein. The displacement of the tracer is measured and associated with a drop in fluorescence polarisation. The drop in fluorescence polarisation is proportional to the fraction of target protein bound with the non-fluorescent titrant, and thus is a measure of the affinity of titrant to target protein.

[2] = target: T2, dog MT1-MMP hemopexin domain (dog); test: FP competition, dog hemopexin domain
T2 construct: domain: hemopexin domain
Description: as §1

[3] = target: T1, human MT1-MMP hemopexin domain …; test: Kd, method not named in table (FP competition by the methods)

Row | Binder | Kd [1] [nM] | Kd [2] [nM] | other results
1 | Ac-C[dA]NE[1Nal][dA]CEDF[Phe(4-Br)]D[Tle]C-NH2 (linker 1-7-14 via TBMB; SMILES CC(=O)N[C@H]1CSCc2cc3cc(c2)CSC[C@H](NC(=O)[C@@H](C)NC(=O)[C@H](Cc2cccc4ccccc24)NC(=O)[C@H](CCC(=O)O)NC(=O)[C@H](CC(N)=O)NC(=O)[C@@H](C)NC1=O)C(=O)N[C@@H](CCC(=O)O)C(=O)N[C@@H](CC(=O)O)C(=O)N[C@@H](Cc1ccccc1)C(=O)N[C@@H](Cc1ccc(Br)cc1)C(=O)N[C@@H](CC(=O)O)C(=O)N[C@@H](C(C)(C)C)C(=O)N[C@H](C(N)=O)CSC3) [17-69-07-N252, Ac-(17-69-07) D-Ala1 1Nal4 D-Ala5 4BrPhe9 tBuGly11] | 0.8 |  | 
2 | G[Sar][Sar][Sar][Sar][Sar][Sar][Sar][Sar][Sar][Sar]ACYNEFGCEDFYDIC-NH2 (linker 13-19-26 via TBMB) [17-69-07-N219, G-Sar10-A-(17-69-07) (non-stabilised with spacer)] |  | 0.9 | 
3 | {DOTA}-AC[dA]NE[1Nal][dA]CEDF[Phe(4-Br)]D[Tle]C-NH2 (linker 2-8-15 via TBMB; SMILES C[C@H](NC(=O)CN1CCN(CC(=O)O)CCN(CC(=O)O)CCN(CC(=O)O)CC1)C(=O)N[C@H]1CSCc2cc3cc(c2)CSC[C@H](NC(=O)[C@@H](C)NC(=O)[C@H](Cc2cccc4ccccc24)NC(=O)[C@H](CCC(=O)O)NC(=O)[C@H](CC(N)=O)NC(=O)[C@@H](C)NC1=O)C(=O)N[C@@H](CCC(=O)O)C(=O)N[C@@H](CC(=O)O)C(=O)N[C@@H](Cc1ccccc1)C(=O)N[C@@H](Cc1ccc(Br)cc1)C(=O)N[C@@H](CC(=O)O)C(=O)N[C@@H](C(C)(C)C)C(=O)N[C@H](C(N)=O)CSC3) [17-69-07-N248, DOTA-A-(17-69-07) D-Ala1 1Nal4 D-Ala5 4BrPhe9 tBuGly11] |  |  | Kd [3]: 0.5 nM
4 | Ac-CYNEFGCEDFYD[Tle]C-NH2 (linker 1-7-14 via TBMB) [17-69-07-N100, Ac-(17-69-07) tBuGly11] | 1.56 |  | 
5 | [βAla][Sar][Sar][Sar][Sar][Sar][Sar][Sar][Sar][Sar][Sar]AC[dA]NE[1Nal][dA]CEDFYD[Tle]C-NH2 (linker 13-19-26 via TBMB; N-terminus assumed; SMILES C[C@H](NC(=O)CN(C)C(=O)CN(C)C(=O)CN(C)C(=O)CN(C)C(=O)CN(C)C(=O)CN(C)C(=O)CN(C)C(=O)CN(C)C(=O)CN(C)C(=O)CN(C)C(=O)CCN)C(=O)N[C@H]1CSCc2cc3cc(c2)CSC[C@H](NC(=O)[C@@H](C)NC(=O)[C@H](Cc2cccc4ccccc24)NC(=O)[C@H](CCC(=O)O)NC(=O)[C@H](CC(N)=O)NC(=O)[C@@H](C)NC1=O)C(=O)N[C@@H](CCC(=O)O)C(=O)N[C@@H](CC(=O)O)C(=O)N[C@@H](Cc1ccccc1)C(=O)N[C@@H](Cc1ccc(O)cc1)C(=O)N[C@@H](CC(=O)O)C(=O)N[C@@H](C(C)(C)C)C(=O)N[C@H](C(N)=O)CSC3, also called βAla-Sar10-A-C(D-Ala)NE(1Nal)(D-Ala)CEDFYD(tBuGly)C) [17-69-07-N241, bAla-Sar10-A-(17-69-07) D-Ala1 1Nal4 D-Ala5 tBuGly11] |  | 1.4 | 
